These results are taken from publication doi:10.1101/2020.04.05.026310 (bioRxiv, 2020).

A word on the stoichiometry N: it is a count of units in the complex or per binding partner.

B1: mouse pyridoxal kinase (mPDXK), wild type (enzyme, UniProt Q8K183 1-312, looked up)
chain: MEGECRVLSIQSHVVRGYVGNRAAMFPLQVLGFEVDAVNSVQFSNHTGYAHWKGQVLKSQELHELYEGLKVNDVNKYDYVLTGYTRDKSFLAMVVDIVRELKQQNSRLVYVCDPVMGDKWNGEGSMYVPQDLLPVYRDKVVPVADIITPNQFEAELLSGRKIHSQEEAFEVMDMLHCMGPDTVVITSSDLPSSQGSDYLIALGSQRMRKPDGSTVTQRIRMEMRKVEAVFVGTGDLFAAMLLAWTHKHPDNLKVACEKTVSAMQHVLQRTIRCAKAEAGEGQKPSPAQLELRMVQSKRDIEDPEIVVQATVL
B2: mouse pyridoxal kinase (mPDXK) V41W (enzyme, UniProt Q8K183 1-312, looked up)
chain: MEGECRVLSIQSHVVRGYVGNRAAMFPLQVLGFEVDAVNSWQFSNHTGYAHWKGQVLKSQELHELYEGLKVNDVNKYDYVLTGYTRDKSFLAMVVDIVRELKQQNSRLVYVCDPVMGDKWNGEGSMYVPQDLLPVYRDKVVPVADIITPNQFEAELLSGRKIHSQEEAFEVMDMLHCMGPDTVVITSSDLPSSQGSDYLIALGSQRMRKPDGSTVTQRIRMEMRKVEAVFVGTGDLFAAMLLAWTHKHPDNLKVACEKTVSAMQHVLQRTIRCAKAEAGEGQKPSPAQLELRMVQSKRDIEDPEIVVQATVL
B3: mouse pyridoxal kinase (mPDXK) F43R (enzyme, UniProt Q8K183 1-312, looked up)
chain: MEGECRVLSIQSHVVRGYVGNRAAMFPLQVLGFEVDAVNSVQRSNHTGYAHWKGQVLKSQELHELYEGLKVNDVNKYDYVLTGYTRDKSFLAMVVDIVRELKQQNSRLVYVCDPVMGDKWNGEGSMYVPQDLLPVYRDKVVPVADIITPNQFEAELLSGRKIHSQEEAFEVMDMLHCMGPDTVVITSSDLPSSQGSDYLIALGSQRMRKPDGSTVTQRIRMEMRKVEAVFVGTGDLFAAMLLAWTHKHPDNLKVACEKTVSAMQHVLQRTIRCAKAEAGEGQKPSPAQLELRMVQSKRDIEDPEIVVQATVL
B4: mouse pyridoxal kinase (mPDXK) V41W/F43R double mutant (enzyme, UniProt Q8K183 1-312, looked up)
chain: MEGECRVLSIQSHVVRGYVGNRAAMFPLQVLGFEVDAVNSWQRSNHTGYAHWKGQVLKSQELHELYEGLKVNDVNKYDYVLTGYTRDKSFLAMVVDIVRELKQQNSRLVYVCDPVMGDKWNGEGSMYVPQDLLPVYRDKVVPVADIITPNQFEAELLSGRKIHSQEEAFEVMDMLHCMGPDTVVITSSDLPSSQGSDYLIALGSQRMRKPDGSTVTQRIRMEMRKVEAVFVGTGDLFAAMLLAWTHKHPDNLKVACEKTVSAMQHVLQRTIRCAKAEAGEGQKPSPAQLELRMVQSKRDIEDPEIVVQATVL
B5: mouse pyridoxal kinase (mPDXK) R86W (enzyme, UniProt Q8K183 1-312, looked up)
chain: MEGECRVLSIQSHVVRGYVGNRAAMFPLQVLGFEVDAVNSVQFSNHTGYAHWKGQVLKSQELHELYEGLKVNDVNKYDYVLTGYTWDKSFLAMVVDIVRELKQQNSRLVYVCDPVMGDKWNGEGSMYVPQDLLPVYRDKVVPVADIITPNQFEAELLSGRKIHSQEEAFEVMDMLHCMGPDTVVITSSDLPSSQGSDYLIALGSQRMRKPDGSTVTQRIRMEMRKVEAVFVGTGDLFAAMLLAWTHKHPDNLKVACEKTVSAMQHVLQRTIRCAKAEAGEGQKPSPAQLELRMVQSKRDIEDPEIVVQATVL

This data set deals with the molecule itself. Briefly: SEC-MALS. A general note: In gel filtration, larger molecules generally elute earlier.
On to B1, for which the “stoichiometry N” value turned out to be 2. Regarding B2, the “stoichiometry N” value was 2.

For the protein B3, the “stoichiometry N” value amounted to 2. For B4, the “stoichiometry N” value was 2. Then B5, with 2.
